# ± gives the standard deviation of the averaged measurements.
# B1: library; a variant is named by its letters at N, in order (parent)
# chain: GCUGUCACCGGUGCUUGGUACGUUAUAUUCAGCCGGUCUGAUGAGUCUNNNNNNAGACGAAACAGC
# Tests used:
# (6R,S)-folinic acid [1] = variants of: B1; assay: normalized RNA/DNA level without ligand (relative to sTRSVctl = 100) (log10 (% of sTRSVctl)); HEK293T overexpressing SLC46A1; higher = less ribozyme self-cleavage, higher mRNA level; conditions: without (6R,S)-folinic acid; ligand present: no
# How it was run: (§1)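 RNA level was computed as RNA reads over DNA reads divided by a spiked-in non-cleaving sequence or by the top sequences, then scaled and log-transformed. Scaling was ×100 with log10, the top group was 25 sequences, and the threshold was ≥100 DNA reads. The reads came from HEK293T cells transfected at 4 µg per 6-well well with ribozyme switch library plasmids (mCherry, or eGFP in some ligand experiments). Total RNA was extracted with EDTA 72 h after transfection, with any ligand added 1 h before it.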
# (6R,S)-folinic acid [2] = variants of: B1; assay: normalized RNA/DNA level with ligand (relative to sTRSVctl = 100) (log10 (% of sTRSVctl)); HEK293T overexpressing SLC46A1; ligand concentration (+) RNA-Seq: 6 mM; higher = less ribozyme self-cleavage, higher mRNA level; conditions: with (6R,S)-folinic acid; ligand present: yes
# How it was run: as §1
Variant,"normalized RNA/DNA level without ligand (log10) ((6R,S)-folinic acid [1])","normalized RNA/DNA level with ligand (log10) ((6R,S)-folinic acid [2])"
GCUGUCACCGGUGCUUGGUACGUUAUAUUCAGCCGGUCUGAUGAGUCUACCCUGAGACGAAACAGC,2.006 ± 0.013,2.032 ± 0.013
GCUGUCACCGGUGCUUGGUACGUUAUAUUCAGCCGGUCUGAUGAGUCUCCCCUUAGACGAAACAGC,2.06 ± 0.023,2.05 ± 0.034
GCUGUCACCGGUGCUUGGUACGUUAUAUUCAGCCGGUCUGAUGAGUCUGCCCUUAGACGAAACAGC,2.021 ± 0.0059,2.01 ± 0.044
GCUGUCACCGGUGCUUGGUACGUUAUAUUCAGCCGGUCUGAUGAGUCUUCCCUUAGACGAAACAGC,2.03 ± 0.026,2.006 ± 0.0086
GCUGUCACCGGUGCUUGGUACGUUAUAUUCAGCCGGUCUGAUGAGUCUACCCUUAGACGAAACAGC,2.02 ± 0.027,2.03 ± 0.044
GCUGUCACCGGUGCUUGGUACGUUAUAUUCAGCCGGUCUGAUGAGUCUCCCGAAAGACGAAACAGC,2.029 ± 0.0067,2.02 ± 0.056
GCUGUCACCGGUGCUUGGUACGUUAUAUUCAGCCGGUCUGAUGAGUCUUCCGAAAGACGAAACAGC,1.941 ± 0.015,1.978 ± 0.019
GCUGUCACCGGUGCUUGGUACGUUAUAUUCAGCCGGUCUGAUGAGUCUCCCGACAGACGAAACAGC,2.043 ± 0.016,2.05 ± 0.033
GCUGUCACCGGUGCUUGGUACGUUAUAUUCAGCCGGUCUGAUGAGUCUGCCGACAGACGAAACAGC,1.982 ± 0.0078,2.04 ± 0.029
GCUGUCACCGGUGCUUGGUACGUUAUAUUCAGCCGGUCUGAUGAGUCUUCCGACAGACGAAACAGC,2.029 ± 0.013,2.031 ± 0.0089
GCUGUCACCGGUGCUUGGUACGUUAUAUUCAGCCGGUCUGAUGAGUCUACCGACAGACGAAACAGC,2.0415 ± 0.00053,2.03 ± 0.058
GCUGUCACCGGUGCUUGGUACGUUAUAUUCAGCCGGUCUGAUGAGUCUCCCGAGAGACGAAACAGC,1.95 ± 0.0086,1.99 ± 0.022
GCUGUCACCGGUGCUUGGUACGUUAUAUUCAGCCGGUCUGAUGAGUCUCCCGAUAGACGAAACAGC,2.002 ± 0.016,2.017 ± 0.0026
GCUGUCACCGGUGCUUGGUACGUUAUAUUCAGCCGGUCUGAUGAGUCUGCCGAUAGACGAAACAGC,2.015 ± 0.007,2.05 ± 0.03
GCUGUCACCGGUGCUUGGUACGUUAUAUUCAGCCGGUCUGAUGAGUCUUCCGAUAGACGAAACAGC,1.96 ± 0.026,2 ± 0.038
GCUGUCACCGGUGCUUGGUACGUUAUAUUCAGCCGGUCUGAUGAGUCUACCGAUAGACGAAACAGC,1.973 ± 0.0074,1.99 ± 0.044
GCUGUCACCGGUGCUUGGUACGUUAUAUUCAGCCGGUCUGAUGAGUCUCCCGCAAGACGAAACAGC,2.06 ± 0.035,2.071 ± 0.02
GCUGUCACCGGUGCUUGGUACGUUAUAUUCAGCCGGUCUGAUGAGUCUGCCGCAAGACGAAACAGC,2.04 ± 0.027,2.044 ± 0.019
GCUGUCACCGGUGCUUGGUACGUUAUAUUCAGCCGGUCUGAUGAGUCUUCCGCAAGACGAAACAGC,2.01 ± 0.03,2.01 ± 0.063
GCUGUCACCGGUGCUUGGUACGUUAUAUUCAGCCGGUCUGAUGAGUCUACCGCAAGACGAAACAGC,2.009 ± 0.018,2.01 ± 0.024
GCUGUCACCGGUGCUUGGUACGUUAUAUUCAGCCGGUCUGAUGAGUCUCCCGCCAGACGAAACAGC,2.0796 ± 0.00065,2.05 ± 0.03

# Source: the supplement of paper PMC6757056
